Assay results from patent US20250027068A1 (published 2025).
Residue numbers refer to the chain shown, from its start.

B1: PRT-426 (enzyme)
chain: MTITSVWTKGVTPPTPEDFRYNNEDVLHAPYVANQGWYDITKTFDGKDNLLCGAATAGNMLHWWFDQNKEEIERYLKKHPEKQKIIFNNQELFDVKAAIDTKDSQTNSKLFNYFRDKAFPNLSARQLGVFPDLVLDMFINGYYLNLGKTQSTDVNRPYQDKDKRGGIFDAVFTRGDQTTLLTARHDLKNKGLNEISDLIKQELTEGKALALSHTYANVRINHVINLWGADFDAEGNLIAIYVTDSDANASIGMKKYFVGVNANGKVAISAKKIEGDNIGAQVLGLFTLSTGQDIWQKLS
B2: PRT-419 (enzyme)
chain: B1 chain with F130M, I294Q
B3: PRT-427 (enzyme)
chain: B1 chain with F130M, D176V
B4: PRT-379 (enzyme)
chain: MVTSVWTKGVTPPTNFTYGEDVLHAPYVANQGWYDITKTFNGKDDLLCGAATAGNMLHWWFDQNKEQIENYLKKHPEKQKINFNGEQMFDVKEAIDTKDSQLDSKLFEYFKEKAFPYLSTKHLGVFPDHVIDMFINGYRLSLLNHGPTPVKRGSKDPRGGIFDAVFTRGDQSKLLTNRHDFKEKTLKEISDLIKQELTEGKALGISHTYANVRINHVINLWGADFDAEGNLEAIYVTDSDSNASIGMKKYFVGVNSNGKVAISAKEIEEDNIGAQVLGLFTLSTGQDIWNQTN
B5: PRT-380 (enzyme)
chain: B4 chain with L143T, V212A
B6: PRT-388 (enzyme)
chain: B4 chain with D45T, L143T
B7: PRT-387 (enzyme)
chain: B4 chain with L143T, N257S
B8: PRT-395 (enzyme)
chain: MVTSVWTKGVTPPADFTQGEDVFHAPYVANQGWYDITKTFNGKDDLLCGAATAGNMLHWWFDQNKEYIEAYLKKHPEKQKIMFGDQELLDVRKAINTKGSQKNSELFNYFRDKAFPTLSARRLGVMPDLVLDMFINGYYLNVTKTQTTDVNRTYQEKDKRGGIFDAVFTRGDQSKLLTSRHDFKEKGLKEISDLIKQELTEGKALGLSHTYANVRINHVINLWGADFDSDGNLKAIYVTDSDSNASIGMKKYFVGVNSAGKVAISAKEIKEDNIGAQVLGLFTLSTGQDIWNQTN
B9: PRT-403 (enzyme)
chain: B8 chain with T117N, N217S
B10: PRT-411 (enzyme)
chain: B8 chain with T117N, N244R
B11: PRT-396 (enzyme)
chain: B8 chain with T117N, Y211T
B12: PRT-444 (enzyme)
chain: MSQTEDSESLQRLRDIEDFQAEKKKQNVVYTKWLDGVDVKDHDFRKIVDGNIAYYATPLLNGRGFYDINKDFNRDSDKCAAAVAANMFHYWLDRNRDNVDRFLRQNPEKHGIIELPDGQLKLSDFLNTYESDDGYRDKSKLFDFISNNFNKPVWTDKLLDNYINGYAYNYKYGRTIEDPTKNTSKINFFKEVFNEKILTNNHSIRNQNEFSVLLSEALYTGKAIGLSYGPAGLRHSLGHIISVWGADLDADGNVVAIYVTDSDDKKLTIGDERVGLKRYKISTDDEGRLRLTAYEETHNTGGQIRGLWTLDTGKQAWADYFDKTEQTGTDQAEQ

Target: pooled human IgG (human IgG1, 2, 3 and 4) (human)
Experiment: cell-based or functional assay
Note: test concentration or dose not given here.

| Binder | Enzyme Activity Endpoint Assay: Fab′2 [ng/µL] | Enzyme Activity Endpoint Assay: Fc [ng/µL] | Enzyme Activity Endpoint Assay: IgG [ng/µL] | Enzyme Activity Endpoint Assay: scIgG [ng/µL] |
| --- | --- | --- | --- | --- |
| B1 | 508 | 283 | 243 | 0 |
| B2 | 528 | 298 | 183 | 0 |
| B3 | 537 | 352 | 135 | 139 |
| B4 | 599 | 370 | 0 | 226 |
| B5 | 66 | 258 | 219 | 702 |
| B6 | 481 | 338 | 34 | 222 |
| B7 | 605 | 366 | 0 | 242 |
| B8 | 544 | 358 | 0 | 204 |
| B9 | 569 | 332 | 166 | 40 |
| B10 | 519 | 341 | 90 | 155 |
| B11 | 0 | 92 | 1010 | 215 |
| B12 | 494 | 321 | 0 | 286 |
